Experimental data published in patent publication US20150344570A1 (published 2015).

T1: FcγRIIb (human, UniProt P31994 43-217)
T1 construct: extracellular domain; also called FcgRIIb; CD32B
T1 sequence (looked up): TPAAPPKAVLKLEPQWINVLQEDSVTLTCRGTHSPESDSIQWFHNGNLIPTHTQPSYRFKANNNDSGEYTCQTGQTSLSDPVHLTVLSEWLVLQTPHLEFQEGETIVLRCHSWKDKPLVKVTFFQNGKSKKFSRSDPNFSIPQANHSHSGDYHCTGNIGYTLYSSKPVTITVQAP

T2: FcγRIIa H (human, UniProt P12318 34-217)
T2 construct: extracellular domain; also called FcgRIIa H; 2aH; not shown: His tag at the C terminus
T2 sequence (looked up): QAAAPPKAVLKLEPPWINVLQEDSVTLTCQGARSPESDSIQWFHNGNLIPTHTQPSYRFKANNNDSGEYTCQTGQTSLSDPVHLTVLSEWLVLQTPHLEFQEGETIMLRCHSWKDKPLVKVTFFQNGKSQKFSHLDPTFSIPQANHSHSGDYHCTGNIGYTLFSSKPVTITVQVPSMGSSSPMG

T3: FcγRIIb (human, UniProt P31994 43-217)
T3 construct: extracellular domain; also called FcgRIIb; 2b; not shown: His tag at the C terminus
T3 sequence (looked up): T1 sequence (looked up)

B1: GpH7-A5/GpH7-B3 variant P329_12R/GpL16-k0 (antibody, human IgG1, kappa)
heavy 1: not shown
heavy 2: not shown
light: DIVMTQSPLSLPVTPGEPASISCQASESLVHSNRNTYLHWYLQKPGQSPQLLIYKVSNRFSGVPDRFSGSGSGTDFTLKISRVEAEDVGVYYCSQNTHVPPTFGQGTKVEIERTVAAPSVFIFPPSDEQLKSGTASVVCLLNNFYPREAKVQWKVDNALQSGNSQESVTEQDSKDSTYSLSSTLTLSKADYEKHKVYACEVTHQGLSSPVTKSFNRGEC
notes: He Ab; mutation in the GpH7-B3 chain only; also called He Ab
B2: GpH7-A5/GpH7-B3 variant P329_01G/GpL16-k0 (antibody, human IgG1, kappa)
heavy 1: not shown
heavy 2: not shown
light: B1 light
notes: He Ab: mutation in the GpH7-B3 H chain only
B3: GpH7-A5/GpH7-B3 variant A330_07I/GpL16-k0 (antibody, human IgG1, kappa)
heavy 1: not shown
heavy 2: not shown
light: B1 light
notes: as for B2
B4: GpH7-A5/GpH7-B3 variant L328_11K/GpL16-k0 (antibody, human IgG1, kappa)
heavy 1: not shown
heavy 2: not shown
light: B1 light
notes: as for B2
B5: GpH7-A5/GpH7-B3 variant L328_12R/GpL16-k0 (antibody, human IgG1, kappa)
heavy 1: not shown
heavy 2: not shown
light: B1 light
notes: as for B2
B6: GpH7-A5/GpH7-B3 variant P329_18N/GpL16-k0 (antibody, human IgG1, kappa)
heavy 1: not shown
heavy 2: not shown
light: B1 light
notes: as for B1
B7: GpH7-A5/GpH7-B3 variant P329_13S/GpL16-k0 (antibody, human IgG1, kappa)
heavy 1: not shown
heavy 2: not shown
light: B1 light
notes: as for B1
B8: GpH7-A5/GpH7-B3 variant A330_14T/GpL16-k0 (antibody, human IgG1, kappa)
heavy 1: not shown
heavy 2: not shown
light: B1 light
notes: as for B2
B9: GpH7-A5/GpH7-B3 variant A330_03V/GpL16-k0 (antibody, human IgG1, kappa)
heavy 1: not shown
heavy 2: not shown
light: B1 light
notes: as for B2
B10: GpH7-A5/GpH7-B3 variant E333_18N/GpL16-k0 (antibody, human IgG1, kappa)
heavy 1: not shown
heavy 2: not shown
light: B1 light
notes: as for B2
B11: GpH7-A5/GpH7-B3 variant I332_03V/GpL16-k0 (antibody, human IgG1, kappa)
heavy 1: not shown
heavy 2: not shown
light: B1 light
notes: as for B2
B12: GpH7-A5/GpH7-B3 variant I332_18N/GpL16-k0 (antibody, human IgG1, kappa)
heavy 1: not shown
heavy 2: not shown
light: B1 light
notes: as for B2
B13: GpH7-A5/GpH7-B3 variant E333_13S/GpL16-k0 (antibody, human IgG1, kappa)
heavy 1: not shown
heavy 2: not shown
light: B1 light
notes: as for B2
B14: GpH7-A5/GpH7-B3 variant P331_01G/GpL16-k0 (antibody, human IgG1, kappa)
heavy 1: not shown
heavy 2: not shown
light: B1 light
notes: as for B1
B15: GpH7-A5/GpH7-B3 variant E333_01G/GpL16-k0 (antibody, human IgG1, kappa)
heavy 1: not shown
heavy 2: not shown
light: B1 light
notes: as for B2
B16: GpH7-A5/GpH7-B3 variant A327_19Q/GpL16-k0 (antibody, human IgG1, kappa)
heavy 1: not shown
heavy 2: not shown
light: B1 light
notes: as for B2
B17: GpH7-A5/GpH7-B3 variant P329_14T/GpL16-k0 (antibody, human IgG1, kappa)
heavy 1: not shown
heavy 2: not shown
light: B1 light
notes: as for B1
B18: GpH7-A5/GpH7-B3 variant I336_20W/GpL16-k0 (antibody, human IgG1, kappa)
heavy 1: not shown
heavy 2: not shown
light: B1 light
notes: as for B2
B19: GpH7-A5/GpH7-B3 variant P329_15Y/GpL16-k0 (antibody, human IgG1, kappa)
heavy 1: not shown
heavy 2: not shown
light: B1 light
notes: as for B1
B20: GpH7-A5/GpH7-B3 variant A327_04F/GpL16-k0 (antibody, human IgG1, kappa)
heavy 1: not shown
heavy 2: not shown
light: B1 light
notes: as for B2
B21: GpH7-A5/GpH7-B3 variant E333_11K/GpL16-k0 (antibody, human IgG1, kappa)
heavy 1: not shown
heavy 2: not shown
light: B1 light
notes: as for B2
B22: GpH7-A5/GpH7-B3 variant P329_19Q/GpL16-k0 (antibody, human IgG1, kappa)
heavy 1: not shown
heavy 2: not shown
light: B1 light
notes: as for B1
B23: GpH7-A5/GpH7-B3 variant A330_13S/GpL16-k0 (antibody, human IgG1, kappa)
heavy 1: not shown
heavy 2: not shown
light: B1 light
notes: as for B2
B24: GpH7-A5/GpH7-B3 variant P329_16H/GpL16-k0 (antibody, human IgG1, kappa)
heavy 1: not shown
heavy 2: not shown
light: B1 light
notes: as for B1
B25: GpH7-A5/GpH7-B3 variant T335_11K/GpL16-k0 (antibody, human IgG1, kappa)
heavy 1: not shown
heavy 2: not shown
light: B1 light
notes: as for B1
B26: GpH7-A5/GpH7-B3 variant T335_12R/GpL16-k0 (antibody, human IgG1, kappa)
heavy 1: not shown
heavy 2: not shown
light: B1 light
notes: as for B1
B27: GpH7-A5/GpH7-B3 variant P329_20W/GpL16-k0 (antibody, human IgG1, kappa)
heavy 1: not shown
heavy 2: not shown
light: B1 light
notes: as for B1
B28: GpH7-A5/GpH7-B3 variant A327_06M/GpL16-k0 (antibody, human IgG1, kappa)
heavy 1: not shown
heavy 2: not shown
light: B1 light
notes: as for B2
B29: GpH7-A5/GpH7-B3 variant I336_19Q/GpL16-k0 (antibody, human IgG1, kappa)
heavy 1: not shown
heavy 2: not shown
light: B1 light
notes: as for B2
B30: GpH7-A5/GpH7-B3 variant A330_18N/GpL16-k0 (antibody, human IgG1, kappa)
heavy 1: not shown
heavy 2: not shown
light: B1 light
notes: as for B2
B31: GpH7-A5/GpH7-B3 variant I332_12R/GpL16-k0 (antibody, human IgG1, kappa)
heavy 1: not shown
heavy 2: not shown
light: B1 light
notes: as for B2
B32: GpH7-A5/GpH7-B3 variant A327_12R/GpL16-k0 (antibody, human IgG1, kappa)
heavy 1: not shown
heavy 2: not shown
light: B1 light
notes: as for B2
B33: GpH7-A5/GpH7-B3 variant A330_12R/GpL16-k0 (antibody, human IgG1, kappa)
heavy 1: not shown
heavy 2: not shown
light: B1 light
notes: as for B2
B34: GpH7-A5/GpH7-B3 variant A330_08L/GpL16-k0 (antibody, human IgG1, kappa)
heavy 1: not shown
heavy 2: not shown
light: B1 light
notes: He Ab: A330L (EU numbering) in the GpH7-B3 H chain only; also called GpH7-A5/GpH7-B3-20-08L/GpL16-k0

Assays:
[1] = biological target: T4, FcγRIa (human, UniProt P12314 16-292); test: ratio of He/Con_1a to He/Con_2b (FcγRIa over FcγRIIb), SPR
T4 construct: extracellular domain; also called FcgRI; CD64
Method in brief: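 Capture format: antigen peptide chip holds the antibody, FcγR diluted in HBS-EP+ is the analyte. Temperature 25 °C; regeneration by 10 mM glycine-HCl, pH 1.5.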

[2] = biological target: T4, FcγRIa; test: SPR (Biacore), captured antibody, soluble FcγR; relative to GpH7-A5/GpH7-B3/GpL16-k0 = 100
[3] = biological target: T1, FcγRIIb; test: as above
[4] = biological target: T2, FcγRIIa H; test: SPR (Biacore); He/Con_2aH divided by He/Con_2b (FcγRIIa H versus FcγRIIb)
Protocol: (§1) The heterodimerized antibodies He Abs in which one of the H chains was introduced with an alteration were assayed for their binding activities to each activating FcγR and inhibitory FcγR according to the method described in Example 4. […] The activating FcγRs in FIGS. 26, 27, 28, and 29 are FcγRIa, FcγRIIa (R), FcγRIIa (H), and FcγRIIIa, respectively.
(§2) Analysis of interaction between objective antibody and the FcγR was carried out using Biacore T100 (GE Healthcare). HBS-EP+ (GE Healthcare) was used as the running buffer, and the measurement temperature was set to 25° C. Chips produced by immobilizing the antigen peptide by the amine coupling method to a Series S Sencor Chip CM5 (GE Healthcare), or alternatively, chips produced by allowing preliminarily biotinylated antigen peptides to interact with and immobilize onto a Series S Sensor Chip SA (certified) (GE Healthcare) were used. Antibodies of interest were captured onto an antigen peptide-immobilized chip, and allowed to interact to each FcγR diluted with running buffer. To regenerate and repeatedly use the chip, the antibodies captured on the chip were washed off by reacting 10 mM glycine-HCl, pH 1.5.

[5] = biological target: T2, FcγRIIa H; test: SPR (Biacore), FcγR passed over captured antibody; binding amount as % of control GpH7-A5/GpH7-B3/GpL16-k0 (=100)
Protocol: as §1, §2

[6] = biological target: T3, FcγRIIb; test: as above
Protocol: as §1, §2

T4 sequence (P12314 16-292): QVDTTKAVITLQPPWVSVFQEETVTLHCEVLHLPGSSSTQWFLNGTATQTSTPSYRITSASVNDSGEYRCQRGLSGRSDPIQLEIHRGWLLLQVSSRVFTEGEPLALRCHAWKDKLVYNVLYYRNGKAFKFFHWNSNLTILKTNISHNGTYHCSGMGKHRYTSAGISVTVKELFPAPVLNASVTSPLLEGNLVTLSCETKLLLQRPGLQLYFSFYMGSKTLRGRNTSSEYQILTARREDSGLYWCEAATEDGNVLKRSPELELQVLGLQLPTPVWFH

Binder | He_1a/2b (Ia/IIb) [1] | He/Con_1a [2] | He/Con_2b [3] | He_2aH/2b (IIaH/IIb) [4] [ratio] | He/Con_2aH [5] | He/Con_2b [6]
B1 | 4.22 | 74.3 % of control | 17.6 % of control | – | – | –
B2 | – | – | – | 1.32 | 54.9 relative, control = 100 | 41.7 relative, control = 100
B3 | – | – | – | 1.3 | 87.3 relative, control = 100 | 67.1 relative, control = 100
B4 | – | – | – | 4.27 | 32.2 relative, control = 100 | –
B5 | – | – | – | 4.6 | 42.5 relative, control = 100 | –
B6 | 2.29 | 92.4 % of control | 40.4 % of control | – | – | –
B7 | 2.27 | 93.3 % of control | 41 % of control | – | – | –
B8 | – | – | – | 1.21 | 94.5 relative, control = 100 | 77.9 relative, control = 100
B9 | – | – | – | 1.52 | 79.7 relative, control = 100 | 52.4 relative, control = 100
B10 | – | – | – | 1.26 | 96.2 relative, control = 100 | 76.1 relative, control = 100
B11 | – | – | – | 1.3 | 105 relative, control = 100 | 80.7 relative, control = 100
B12 | – | – | – | 1.22 | 110 relative, control = 100 | 89.9 relative, control = 100
B13 | – | – | – | 1.23 | 101 relative, control = 100 | 81.8 relative, control = 100
B14 | 1.88 | 85.3 % of control | 45.4 % of control | – | – | –
B15 | – | – | – | 1.2 | 97.7 relative, control = 100 | 81.4 relative, control = 100
B16 | – | – | – | 1.24 | 67.3 relative, control = 100 | 54.2 relative, control = 100
B17 | 2.37 | 89.7 % of control | 37.9 % of control | – | – | –

Binder | He_1a/2b (Ia/IIb) [1] | He/Con_1a [2] | He/Con_2b [3] | He_2aH/2b (IIaH/IIb) [4] [ratio] | He/Con_2aH [5] | He/Con_2b [6]
B18 | – | – | – | 1.52 | 30.9 relative, control = 100 | 20.3 relative, control = 100
B19 | 2.09 | 95.6 % of control | 45.7 % of control | – | – | –
B20 | – | – | – | 1.32 | 84.4 relative, control = 100 | 63.7 relative, control = 100
B21 | – | – | – | 1.22 | 98.1 relative, control = 100 | 80.6 relative, control = 100
B22 | 2.31 | 70.7 % of control | 30.7 % of control | – | – | –
B23 | – | – | – | 1.58 | 65.4 relative, control = 100 | 41.3 relative, control = 100
B24 | 2.45 | 95.6 % of control | 39.1 % of control | – | – | –
B25 | 1.22 | 111 % of control | 91 % of control | – | – | –
B26 | 1.23 | 113 % of control | 91.9 % of control | – | – | –
B27 | 2.15 | 96.9 % of control | 45.1 % of control | – | – | –
B28 | – | – | – | 1.27 | 75.5 relative, control = 100 | 59.5 relative, control = 100
B29 | – | – | – | 1.27 | 73.7 relative, control = 100 | 58.2 relative, control = 100
B30 | – | – | – | 1.28 | 81.6 relative, control = 100 | 63.7 relative, control = 100
B31 | – | – | – | 1.8 | 87.8 relative, control = 100 | 48.9 relative, control = 100
B32 | – | – | – | 1.26 | 11.3 relative, control = 100 | –
B33 | – | – | – | 1.27 | 108 relative, control = 100 | 84.8 relative, control = 100
B34 | – | – | – | 1.24 | 87.6 relative, control = 100 | 70.5 relative, control = 100
